Assays:
Details in all cases: both partners purified
[1] = biological target: T1, cytochrome P450 3A4 (CYP3A4), human, C-terminally His-tagged, expressed from pB84 (human, UniProt P08684 1-503); experiment: absorbance spectroscopy of the co-purified nanodiscs (fit of a convolution spectrum); CPR-CYP3A4-nanodiscs of bovine liver microsomal lipid after Ni-affinity and gel filtration; spectra of singly loaded nanodiscs as basis spectra
T1 construct: human cytochrome P450 3A4 with its own N-terminal membrane anchor domain; expressed with an OmpA leader that is cleaved off during membrane targeting; source: E. coli K12 JM109, solubilised with CHAPS, purified (Ni-NTA agarose); not shown: His-tag, C-terminal, kept

[2] = biological target: T1, cytochrome P450 3A4 (CYP3A4), human, …; experiment: absorbance spectroscopy of the co-purified nanodiscs (fit of a convolution spectrum); CPR-CYP3A4-nanodiscs of mixed lipid (ER mimic) after Ni-affinity and gel filtration; spectra of singly loaded nanodiscs as basis spectra
[3] = biological target: T1, cytochrome P450 3A4 (CYP3A4), human, …; experiment: absorbance spectroscopy of the co-purified nanodiscs (fit of a convolution spectrum); CPR-CYP3A4-nanodiscs of POPC after Ni-affinity and gel filtration; spectra of singly loaded nanodiscs as basis spectra

T1 sequence (P08684 whole entry, the tested form may be a part): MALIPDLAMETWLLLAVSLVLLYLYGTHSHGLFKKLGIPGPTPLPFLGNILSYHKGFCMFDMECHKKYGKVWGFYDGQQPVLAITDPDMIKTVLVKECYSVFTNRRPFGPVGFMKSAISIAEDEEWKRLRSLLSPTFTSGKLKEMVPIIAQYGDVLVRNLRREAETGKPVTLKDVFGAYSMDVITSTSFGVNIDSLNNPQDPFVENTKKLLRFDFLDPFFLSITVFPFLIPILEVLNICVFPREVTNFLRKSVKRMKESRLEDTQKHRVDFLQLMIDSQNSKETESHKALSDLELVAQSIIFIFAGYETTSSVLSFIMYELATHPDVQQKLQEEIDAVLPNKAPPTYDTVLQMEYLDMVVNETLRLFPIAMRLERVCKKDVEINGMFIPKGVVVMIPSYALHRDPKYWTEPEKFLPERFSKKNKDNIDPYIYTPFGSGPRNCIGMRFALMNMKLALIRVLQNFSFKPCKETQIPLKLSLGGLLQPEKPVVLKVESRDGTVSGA

stoichiometry N [1]: 1 CPR : CYP (molar ratio) | stoichiometry N [2]: 1.1 CPR : CYP (molar ratio) | stoichiometry N [3]: 0.8 CPR : CYP (molar ratio)
B1: NADPH-dependent cytochrome P450 oxidoreductase (CPR), full-length human, expressed from pPORh1 (enzyme)
chain: GIPGSMGDSHVDTSSTVSEAVAEEVSLFSMTDMILFSLIVGLLTYWFLFRKKKEEVPEFTKIQTLTSSVRESSFVEKMKKTGRNIIVFYGSQTGTAEEFANRLSKDAHRYGMRGMSADPEEYDLADLSSLPEIDNALVVFCMATYGEGDPTDNAQDFYDWLQETDVDLSGVKFAVFGLGNKTYEHFNAMGKYVDKRLEQLGAQRIFELGLGDDDGNLEEDFITWREQFWPAVCEHFGVEATGEESSIRQYELVVHTDIDAAKVYMGEMGRLKSYENQKPPFDAKNPFLAAVTTNRKLNQGTERHLMHLELDISDSKIRYESGDHVAVYPANDSALVNQLGKILGADLDVVMSLNNLDEESNKKHPFPCPTSYRTALTYYLDITNPPRTNVLYELAQYASEPSEQELLRKMASSSGEGKELYLSWVVEARRHILAILQDCPSLRPPIDHLCELLPRLQARYYSIASSSKVHPNSVHICAVVVEYETKAGRINKGVATNWLRAKEPAGENGGRALVPMFVRKSQFRLPFKATTPVIMVGPGTGVAPFIGFIQERAWLRQQGKEVGETLLYYGCRRSDEDYLYREELAQFHRDGALTQLNVAFSREQSHKVYVQHLLKQDREHLWKLIEGGAHIYVCGDARNMARDVQNTFYDIVAELGAMEHAQAVDYIKKLMTKGRYSLDVWS
notes: printed in three-letter code as Gly-Iso-Pro-Gly-Ser; human NADPH-dependent cytochrome P450 reductase (CPR), full length with its N-terminal membrane anchor domain; Expressed with an N-terminal OmpA leader for periplasmic membrane targeting; also called cytochrome P450 reductase; full-length CPR; source: E. coli C41(DE3), solubilised from membranes with Triton X-100, purified (2',5'-ADP Sepharose …)
